Data: PMC12307502

Biological target: AβO (amyloid-beta oligomer) (UniProt P05067)
Test: fluorescence quenching titration (Cy5/BHQ3), LangmuirEXT1 fit
Settings: 25 °C; buffer not stated for the aptamer-only binding assays (AβO detection assay: 50 mM Tris-HCl pH 8, 10 mM MgCl2)

UniProt P05067, sequence (P05067 whole entry): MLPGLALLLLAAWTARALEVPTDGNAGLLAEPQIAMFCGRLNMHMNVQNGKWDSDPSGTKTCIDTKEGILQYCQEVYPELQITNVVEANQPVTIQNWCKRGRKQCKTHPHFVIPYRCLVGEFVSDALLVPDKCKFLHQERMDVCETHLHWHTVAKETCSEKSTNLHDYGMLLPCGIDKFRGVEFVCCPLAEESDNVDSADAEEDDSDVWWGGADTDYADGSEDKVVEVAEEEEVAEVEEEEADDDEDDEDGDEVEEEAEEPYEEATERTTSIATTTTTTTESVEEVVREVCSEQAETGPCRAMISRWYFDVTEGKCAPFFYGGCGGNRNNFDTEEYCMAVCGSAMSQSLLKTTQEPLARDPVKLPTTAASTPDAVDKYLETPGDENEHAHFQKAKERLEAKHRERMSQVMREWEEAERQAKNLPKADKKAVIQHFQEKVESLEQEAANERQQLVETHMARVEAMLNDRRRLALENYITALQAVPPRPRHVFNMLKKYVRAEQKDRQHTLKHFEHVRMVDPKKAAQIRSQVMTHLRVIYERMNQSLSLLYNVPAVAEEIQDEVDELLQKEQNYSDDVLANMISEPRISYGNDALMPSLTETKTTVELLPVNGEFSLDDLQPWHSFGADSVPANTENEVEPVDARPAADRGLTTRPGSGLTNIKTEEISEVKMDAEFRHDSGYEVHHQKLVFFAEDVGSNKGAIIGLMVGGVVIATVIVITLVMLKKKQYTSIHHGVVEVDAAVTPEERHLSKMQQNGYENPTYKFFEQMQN

Work on “TGACCAACGCCTGTGGTGTTGGGGCGGGTGCGGTTGGTCA [A4]” yielded a Kd of 7.54 nM.
